B1: recombinant CHO-derived human flt3-L, which has native human sequence (ligand)
chain: TQDCSFQHSPISSDFAVKIRELSDYLLQDYPVTVASNLQDEELCGGLWRLVLAQRWMERLKTVAGSKMQGLLERVNTEIHFVTKCAFQPPPSCLRFVQTNISRLLQETSEQLVALKPWITRQNFSRCLELQCQPDSSTLPPPWSPRPLEATAPTAPQP
B2: wild type flt3-L (yeast-derived recombinant human flt3 Ligand) (ligand)
chain: LSGTQDCSFQHSPISSDFAVKIRELSDYLLQDYPVTVASNLQDEELCGGLWRLVLAQRWMERLKTVAGSKMQGLLERVNTEIHFVTKCAFQPPPSCLRFVQTNISRLLQETSEQLVALKPWITRQNFARCLELQCQPDSSTLPPPWSPRPLEATAP
notes: Secreted from yeast (alpha-factor leader, final plasmid PIXY797); Leu-Ser-Gly stands before Thr1 of the mature protein (80% of chains; 20% begin at Ser); Noncovalent dimer (dimer peak collected); also called WT; 125I-flt3-L (radiolabelled form)
B3: flt3-L mutant H8Y (ligand)
chain: LSGTQDCSFQYSPISSDFAVKIRELSDYLLQDYPVTVASNLQDEELCGGLWRLVLAQRWMERLKTVAGSKMQGLLERVNTEIHFVTKCAFQPPPSCLRFVQTNISRLLQETSEQLVALKPWITRQNFARCLELQCQPDSSTLPPPWSPRPLEATAP
notes: yeast supernatant and purified protein (dimer)
B4: flt3-L multiple mutant K84E/Q122R (ligand)
chain: LSGTQDCSFQHSPISSDFAVKIRELSDYLLQDYPVTVASNLQDEELCGGLWRLVLAQRWMERLKTVAGSKMQGLLERVNTEIHFVTECAFQPPPSCLRFVQTNISRLLQETSEQLVALKPWITRRNFARCLELQCQPDSSTLPPPWSPRPLEATAP
notes: also called double mutant K84E/Q122R
B5: flt3-L quadruply substituted mutant L-3H/H8Y/K84E/Q122R (ligand)
chain: HSGTQDCSFQYSPISSDFAVKIRELSDYLLQDYPVTVASNLQDEELCGGLWRLVLAQRWMERLKTVAGSKMQGLLERVNTEIHFVTECAFQPPPSCLRFVQTNISRLLQETSEQLVALKPWITRRNFARCLELQCQPDSSTLPPPWSPRPLEATAP
notes: Constructed by PCR mutagenesis from K84E/Q122R, expressed in yeast and purified

Assays:
[1] = biological target: T1, human flt3 on BAF/hflt3 cells (BAF-BO3 cells transfected with human flt3 cDNA) (human, UniProt P36888 27-993); assay: Kdi: inhibition of binding of radiolabelled yeast-derived flt3-L to BAF-BO3 cells transfected with human flt3
T1 construct: whole, on cells; also called flt3 Receptor
T1 sequence (looked up): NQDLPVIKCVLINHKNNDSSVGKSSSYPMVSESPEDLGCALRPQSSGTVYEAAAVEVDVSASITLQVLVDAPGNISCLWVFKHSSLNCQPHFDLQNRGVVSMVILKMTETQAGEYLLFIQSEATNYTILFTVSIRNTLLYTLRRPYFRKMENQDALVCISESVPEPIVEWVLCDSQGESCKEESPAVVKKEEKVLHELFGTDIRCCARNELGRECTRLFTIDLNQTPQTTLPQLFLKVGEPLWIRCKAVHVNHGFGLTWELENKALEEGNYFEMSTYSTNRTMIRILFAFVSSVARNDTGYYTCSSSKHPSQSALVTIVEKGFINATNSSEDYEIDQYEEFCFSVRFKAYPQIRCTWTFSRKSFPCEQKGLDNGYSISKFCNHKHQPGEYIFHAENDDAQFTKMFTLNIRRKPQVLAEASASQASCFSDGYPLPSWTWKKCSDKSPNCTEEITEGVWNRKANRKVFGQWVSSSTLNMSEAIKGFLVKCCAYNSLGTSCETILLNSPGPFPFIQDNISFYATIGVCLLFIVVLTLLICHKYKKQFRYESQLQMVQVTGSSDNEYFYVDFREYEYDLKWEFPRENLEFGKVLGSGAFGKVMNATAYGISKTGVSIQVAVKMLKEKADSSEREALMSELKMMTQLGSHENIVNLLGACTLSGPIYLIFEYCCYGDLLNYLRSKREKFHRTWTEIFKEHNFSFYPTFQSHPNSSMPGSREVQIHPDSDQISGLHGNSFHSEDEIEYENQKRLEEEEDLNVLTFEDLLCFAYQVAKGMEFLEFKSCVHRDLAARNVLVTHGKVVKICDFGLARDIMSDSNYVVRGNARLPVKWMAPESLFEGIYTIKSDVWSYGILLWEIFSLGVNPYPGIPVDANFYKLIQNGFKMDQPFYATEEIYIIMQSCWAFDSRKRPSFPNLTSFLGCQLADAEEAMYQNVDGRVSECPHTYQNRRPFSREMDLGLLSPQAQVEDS
Method: (§1) Binding assays were performed using a phthalate oil separation method as described previously for murine ¹²⁵I-GM-CSF (Park et al., J. Biol. Chem. 261:4177-4183 (1986)). Briefly, BAF-BO3 cells transfected with human flt3 cDNA (0.5-1×10⁶) were incubated with serial dilutions of ¹²⁵I-flt3-L in binding medium (RPMI 1640, 2.5% bovine serum albumin, 0.2% NaN3, 20 mM Hepes, pH 7.2) in 96 well microtiter plates maintained on a mini-orbital shaker (Bellco) at 37° C. for 90 minutes. Inhibition binding assays were carried out by holding the radiolabeled flt3-L concentration constant at 0.3 nM, while the concentration of unlabeled competitor proteins ranged from 150 nM to 0.001 nM. The ratio of Kdi of mutant to wild type flt3-L, determined in at least duplicate, in a given assay was averaged over at least three independent assays and the standard error of the mean (SEM) reported. […]
Specific activity of purified mutant or wild type protein was calculated as the ratio of proliferation activity in BAF/hflt3 cells (units/ml) to concentration of flt3-L protein as determined by amino acid composition (ng/ml). The ratio of specific activity of mutant to wild type flt3-L, determined in duplicate, in a given assay was averaged over at least three independent assays and the standard error of the mean (SEM) is reported. […]

[2] = biological target: T1, human flt3 on BAF/hflt3 cells (BAF-BO3 …); assay: direct binding of serial dilutions of 125I-flt3-L to BAF-BO3 cells transfected with human flt3, 37 C, phthalate oil separation (n=7)
Method: as §1
(§2) The ordinate is the Log¹⁰ of the value relative to wild type flt3-L, and the abscissa is the flt3-L mutant designation. […] The ratio of Kₐᵢ mutant to wild type flt3-L, determined in at least duplicate, in a given assay is averaged over at least three independent assays and the standard error of the mean (SEM) is reported.

[3] = biological target: T1, human flt3 on BAF/hflt3 cells (BAF-BO3 …); assay: Kdi: inhibition of 125I-flt3-L binding to BAF/hflt3 cells, the assays of Table 3
[4] = biological target: T1, human flt3 on BAF/hflt3 cells (BAF-BO3 …); assay: cell-based or functional assay
[5] = biological target: T1, human flt3 on BAF/hflt3 cells (BAF-BO3 …); assay: Kdi: inhibition by unlabelled flt3-L of 0.3 nM 125I-flt3-L binding to BAF-BO3 cells transfected with human flt3 (n=7)
Method: as §1, §2

[6] = biological target: T1, human flt3 on BAF/hflt3 cells (BAF-BO3 …); assay: inhibition of 125I-flt3-L binding to BAF/hflt3 cells, purified protein
Method: Binding assays were performed using a phthalate oil separation method as described previously for murine ¹²⁵I-GM-CSF (Park et al., J. Biol. Chem. 261:4177-4183 (1986)). Briefly, BAF-BO3 cells transfected with human flt3 cDNA (0.5-1×10⁶) were incubated with serial dilutions of ¹²⁵I-flt3-L in binding medium (RPMI 1640, 2.5% bovine serum albumin, 0.2% NaN3, 20 mM Hepes, pH 7.2) in 96 well microtiter plates maintained on a mini-orbital shaker (Bellco) at 37° C. for 90 minutes. Inhibition binding assays were carried out by holding the radiolabeled flt3-L concentration constant at 0.3 nM, while the concentration of unlabeled competitor proteins ranged from 150 nM to 0.001 nM. The ratio of Kdi of mutant to wild type flt3-L, determined in at least duplicate, in a given assay was averaged over at least three independent assays and the standard error of the mean (SEM) reported. […] For this assay, cells expressing human flt3 (BAF/hflt3 cells) were constructed from BAF/B03 cells, using a procedure previously described for producing BAF/B03 cells expressing the murine flt3 (Lyman et al., Cell 75:1157-1167 (1993)). Expression of human flt3 by BAF/hflt3 cells was confirmed by examining the capacity of the cells to proliferate in response to soluble flt3-L, and by flow cytometric analysis using biotinylated flt3-L.
^aThe specific activity of purified mutant or wild type protein was determined by taking the ratio of proliferation activity in BAF/hflt3 cells (units/ml) to concentration of flt3-L protein as determined by amino acid composition (ng/ml). The ratio of specific activity of mutant to wild type flt3-L is averaged over three independent assays, and the standard error of the mean (SEM) is reported. ^bThe Kdifor wild type protein is 61 ± 19 pM (n = 2). The ratio of Kₐᵢ of mutant to wild type flt3-L is averaged over two independent assays and the standard deviation is reported.

Row | Binder | Ki [1] | Kd [2] | Ki [3] | Sp.Ac. MUT / Sp.Ac. Wt (BAF/hflt3 cell proliferation units/ml per ng/ml purified protein) [4] | Ki [5] | Kai MUT / Kai Wt [6]
1 | B1 | 0.08 nM |  |  |  |  | 
2 | B2 |  | 0.13 nM | 0.061 nM | 1 ratio to wild type | 0.09 nM | 1 ratio to wild type
3 | B3 |  |  |  | 2.1 ratio to wild type |  | 2.8 ratio to wild type
4 | B4 |  |  |  | 2.9 ratio to wild type |  | 3.4 ratio to wild type
5 | B5 |  |  |  | 3 ratio to wild type |  | 8.6 ratio to wild type
